# According to publication PMC4427200 (Acta Crystallographica Section D: Biological Crystallography, 2015):
# T1: AroD (Salmonella enterica, UniProt P58687)
# T1 construct: source cited as Light et al., 2013; used as SPR control protein
# T1 sequence (P58687 1-252): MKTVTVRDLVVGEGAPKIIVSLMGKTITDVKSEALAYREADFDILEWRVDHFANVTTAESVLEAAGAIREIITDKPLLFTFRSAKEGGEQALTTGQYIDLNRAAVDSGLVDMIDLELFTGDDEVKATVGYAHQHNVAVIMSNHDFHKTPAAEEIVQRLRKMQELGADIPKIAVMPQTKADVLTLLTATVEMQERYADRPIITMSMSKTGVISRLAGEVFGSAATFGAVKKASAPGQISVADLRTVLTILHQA
# T2: SaBADH (Staphylococcus aureus, UniProt A0A0H2X0S3)
# T2 construct: gene betB; pMCSG7 tagged protein (Ni-NTA), E. coli BL21(DE3)/pMAGIC; tetramer/dimer; G234S cloned in p15TV-LIC
# T2 sequence (A0A0H2X0S3 1-496): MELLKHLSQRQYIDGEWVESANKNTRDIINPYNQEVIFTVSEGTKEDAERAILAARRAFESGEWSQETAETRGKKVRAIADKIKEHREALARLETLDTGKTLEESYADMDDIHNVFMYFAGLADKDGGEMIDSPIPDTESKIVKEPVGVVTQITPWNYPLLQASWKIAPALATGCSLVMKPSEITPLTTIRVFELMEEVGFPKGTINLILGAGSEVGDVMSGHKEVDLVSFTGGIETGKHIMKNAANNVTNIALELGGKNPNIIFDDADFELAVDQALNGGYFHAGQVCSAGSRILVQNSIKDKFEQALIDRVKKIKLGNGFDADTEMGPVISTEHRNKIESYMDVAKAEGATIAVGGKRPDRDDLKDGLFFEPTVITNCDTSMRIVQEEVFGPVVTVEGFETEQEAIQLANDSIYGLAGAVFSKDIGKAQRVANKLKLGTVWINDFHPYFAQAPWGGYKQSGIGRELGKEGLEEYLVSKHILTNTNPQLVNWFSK
# Assays:
# AroD = target: T1, AroD; assay: SPR, single binding isotherm fitting
# Source text: SPR, single binding isotherm fitting on AroD | each of the proteins selectively responded to its natural ligand, NADH and DQA, respectively
# SaBADH [1] = target: T2, SaBADH; assay: SPR, immobilized SaBADH; format: binding; conditions: 2 mM ADP, pH 5.0-8.0, 298 K, two-day-old surface
# SaBADH [2] = target: T2, SaBADH; assay: SPR, immobilized SaBADH(BME+); format: binding
# SaBADH [3] = target: T2, SaBADH; assay: NADH absorbance at […] nm; format: biochemical; conditions: substrate inhibition; co-substrate NAD+; 100 mM potassium phosphate pH 8.0, 303 K
# [4] = target: Gly234Ser mutant of SaBADH (G234S-SaBADH) (Staphylococcus aureus COL); assay: crystal structure; X-ray structures of apo and NAD-bound forms, with and without BME; sitting-drop vapor diffusion at 295 K; assemblies analysed with PISA
# [5] = target: betaine aldehyde dehydrogenase SACOL2628 from Staphylococcus aureus COL (SaBADH), wild type (Staphylococcus aureus COL); assay: as above
# [6] = target: betaine aldehyde dehydrogenase SACOL2628 from Staphylococcus aureus COL (SaBADH), wild type (Staphylococcus aureus COL); assay: SEC-MALS; SaBADH^BME(+) 2 mg/ml on Superdex 200 10/300 GL in 10 mM Tris-HCl pH 8.3, 500 mM NaCl, 5 mM BME, 295 K
# [7] = target: betaine aldehyde dehydrogenase SACOL2628 from Staphylococcus aureus COL (SaBADH), wild type (Staphylococcus aureus COL); assay: dynamic light scattering; SaBADH^BME(−) 10-100 uM in 10 mM Tris-HCl pH 8.3, 0.5 mM TCEP, with 0.5-2.5 M KCl, 298 K
# [8] = target: betaine aldehyde dehydrogenase SACOL2628 from Staphylococcus aureus COL (SaBADH), wild type (Staphylococcus aureus COL); assay: dynamic light scattering; SaBADH^BME(−) 10-100 uM in 10 mM Tris-HCl pH 8.3, 0.5 mM TCEP, with 0.5-2.5 M NaCl, 298 K
# [9] = target: betaine aldehyde dehydrogenase SACOL2628 from Staphylococcus aureus COL (SaBADH), wild type (Staphylococcus aureus COL); assay: dynamic light scattering; SaBADH^BME(−) 10-100 uM in 10 mM Tris-HCl pH 8.3, 0.5 mM TCEP, no added salt, 298 K
# purified protein [10] = substrate: NC(=O)c1ccc[n+]([C@@H]2O[C@H](COP(=O)(O)OP(=O)(O)OC[C@H]3O[C@@H](n4cnc5c(N)ncnc54)[C@H](O)[C@@H]3O)[C@@H](O)[C@H]2O)c1; assay: purified protein; conditions: co-substrate betaine aldehyde, 100 mM potassium phosphate pH 8.0, 303 K, 30.0 °C, varied: cofactor
# purified protein [11] = substrate: NC(=O)c1ccc[n+]([C@@H]2O[C@H](COP(=O)(O)OP(=O)(O)OC[C@H]3O[C@@H](n4cnc5c(N)ncnc54)[C@H](OP(=O)(O)O)[C@@H]3O)[C@@H](O)[C@H]2O)c1; assay: purified protein; conditions: co-substrate betaine aldehyde, 100 mM potassium phosphate pH 8.0, 303 K, 30.0 °C, varied: cofactor
molecule,measurement,setting,value
O=C1C[C@@](O)(C(=O)O)C[C@@H](O)[C@@H]1O [3-dehydroquinic acid],Kd,AroD,244 µM
Nc1ncnc2c1ncn2[C@@H]1O[C@H](COP(=O)(O)OP(=O)(O)O)[C@@H](O)[C@H]1O [ADP],"SPR, immobilized SaBADH",SaBADH [1],An acidic pH favored the ADP–SaBADH interaction
NC(=O)C1=CN([C@@H]2O[C@H](COP(=O)(O)OP(=O)(O)OC[C@H]3O[C@@H](n4cnc5c(N)ncnc54)[C@H](O)[C@@H]3O)[C@@H](O)[C@H]2O)C=CC1 [NADH],Kd,SaBADH [2],4.5 µM
NC(=O)c1ccc[n+]([C@@H]2O[C@H](COP(=O)(O)OP(=O)(O)OC[C@H]3O[C@@H](n4cnc5c(N)ncnc54)[C@H](O)[C@@H]3O)[C@@H](O)[C@H]2O)c1 [NAD^+],Kd,SaBADH [2],19.3 µM
C[N+](C)(C)CC=O [betaine aldehyde],Betaine aldehyde,SaBADH [3],0.34 ± 0.06 mM
Gly234Ser mutant of SaBADH (G234S-SaBADH) (enzyme),stoichiometry N,[4],4
"betaine aldehyde dehydrogenase SACOL2628 from Staphylococcus aureus COL (SaBADH), wild type (enzyme)",stoichiometry N,[5],4
same,stoichiometry N,[6],4
same,stoichiometry N,[7],2
same,stoichiometry N,[8],4
same,stoichiometry N,[9],2
SaBADH (Staphylococcus aureus subsp. aureus COL) (protein) MELLKHLSQRQYIDGEWVESANKNTRDIINPYNQEVIFTVSEGTKEDAERAILAARRAFESGEWSQETAETRGKKVRAIADKIKEHREALARLETLDTGKTLEESYADMDDIHNVFMYFAGLADKDGGEMIDSPIPDTESKIVKEPVGVVTQITPWNYPLLQASWKIAPALATGCSLVMKPSEITPLTTIRVFELMEEVGFPKGTINLILGAGSEVGDVMSGHKEVDLVSFTGGIETGKHIMKNAANNVTNIALELGGKNPNIIFDDADFELAVDQALNGGYFHAGQVCSAGSRILVQNSIKDKFEQALIDRVKKIKLGNGFDADTEMGPVISTEHRNKIESYMDVAKAEGATIAVGGKRPDRDDLKDGLFFEPTVITNCDTSMRIVQEEVFGPVVTVEGFETEQEAIQLANDSIYGLAGAVFSKDIGKAQRVANKLKLGTVWINDFHPYFAQAPWGGYKQSGIGRELGKEGLEEYLVSKHILTNTNPQLVNWFSK,Km,purified protein [10],430 ± 30 µM
same,Km,purified protein [11],2260 ± 350 µM
